{"source": "patent US20170095421A1", "about": "“SYNTHETIC PLATELETS” (Maria I. C. Gyongyossy-Issa, priority 2006, published 2017)", "key": {"[1]": {"assay": "Stability of the covalent linkage of peptide to hydrogel liposomes (Trp fluorescence)", "format": "physicochemical", "settings": "hypothermic liquid storage, 4° C., under nitrogen, in the dark", "method": "In brief: fluorescence emission at 348 nm (excitation 280 nm) of the single tryptophan of peptide D-Pep3 was used to analyze the stability of the peptide on the liposomes' surface. Fluorescence emission standard curves of trp-associated fluorescence were prepared using a range of concentrations from 1 μM to 20 μM free peptide D-Pep3 in the presence of 1 mM PEG2000 or HL liposomes (FIG. 34).\nHL and PEG2000 liposomes were reacted with D-Pep3 peptide (as described according to Scheme 1) then washed and adjusted to a concentration of 1 mM lipid. The fluorescence emission was measured. The samples were stored under nitrogen, in the dark, at 4° C. for one month. The liposomes were again washed, resuspended to the same lipid concentration and the fluorescence emission was measured as before (FIG. 35). The attachment was stable for >1 months in hypothermic liquid storage."}, "[2]": {"target": "T1, vWf (Homo sapiens, UniProt P04275)", "T1 construct": "mixed with 5 μL human cryoprecipitate diluted 1/100 in Hepes Buffered Saline; from tissue; host or cells: human plasma cryoprecipitate", "assay": "Capture of vWf from plasma cryoglobulin fraction", "format": "binding", "settings": "human cryoprecipitate 1/100, 1 hour at 37° C., anti-vWf-FITC", "method": "Aliquots of 30 μL of HL or D-Pep3-HL liposomes were mixed with 5 μL human cryoprecipitate diluted 1/100 in Hepes Buffered Saline, (10 mM Hepes, 154 mM NaCl, pH 7.4.) The samples were diluted in buffer to achieve final lipid concentrations of 0.1, 0.25, 0.5, 0.75 and 1 mM, and incubated for 1 hour at 37° C. Anti-vWf-FITC antibodies were added (final dilution 1/128) and incubated for 40 minutes at RT. Samples were diluted with 350 μl of formal-saline and analyzed by flow cytometry."}, "[3]": {"tested_on": "platelets", "assay": "P-HL interaction with platelets in plasma (flow cytometry, co-aggregates)", "format": "cell-based", "settings": "0.75 mM lipid, washed platelets, one hour at room temperature", "method": "Red anti-Cd42-PE antibodies (7 μL) to detect platelets and 5 μL green anti-vWf-FITC antibodies at a 1/160 dilution were added to the tubes and incubated one more time for 30 min. The samples were diluted to 1 mL with formolsaline solution and analysed by flow cytometry. Singlet platelets (platelet gate), singlet liposomes and co-aggregates (P1 gate) were scored.\nThe post-stained aggregates were positive for CD42 (GPIb) and vWf. All the relevant controls were done, and the critical double stained examples (with anti-CD42-PE and anti-vWf-FITC) were as follows:\nFIG. 37A: platelets alone, double stained with anti-CD42-PE and anti-vWF-FITC FIG. 37B: HL (control liposomes), double stained FIG. 37C: P-HL (D3-peptide hydrogel liposomes), double stained FIG. 37D: HL+platelets, (double stained) FIG. 37E: P-HL+platelets, (double stained)"}, "[4]": {"target": "T2, purified vWf (Homo sapiens, UniProt P04275)", "T2 construct": "gift of Dr. F. A. Ofosu, McMaster University", "assay": "Random 15-mer D-peptide array probed with purified vWf", "format": "binding", "settings": "peptide on cellulose membrane, detection with anti-human vWf IgG-HRP", "text": "Random D-amino acid peptides (15 mer) were synthesized and probed with vWf to detect random sequences capable of binding vWf.\nRandom peptide arrays of 1120 peptides made of D-amino acids were synthesized on a cellulose membrane using an AutoSpot ASP 222 peptide synthesizer (ABiMED, Langenfeld, Germany). The resulting replicate libraries of 15-mer sequences were probed for vWf binding function by exposing the membranes to purified vWf (a gift of Dr. F. A. Ofosu, McMaster University, Hamilton ON, Canada) and blocking with milk, then identifying positive spots with a polyclonal goat anti-human vWf IgG coupled to horseradish peroxidase (Cedarlane, Canada). Immunochemical detection was done using the chemiluminescent substrates from the Amersham Pharmacia ECL kit; and the resulting spots were recorded on photographic film. Negative controls consisted of probing the membranes with the antibodies only, but without prior exposure of the membrane to purified vWf.\nPeptides on random 15-mer peptide arrays that were built of D-amino acids were selected by their binding of vWf. Four sequences were identified: D-pep1-VSRQNGKQYWAIKEG (SEQ ID NO:1); D-pep2-WQNEGTHVLSRCYEC (SEQ ID NO:2); D-pep3-RSARMQVCWNAFKNR (SEQ ID NO:3); and D-pep4-DSCPRDWDNNFLFFE (SEQ ID NO:4). […] The identification of each vWf-peptide binding interface constitutes the results that follow.\nSource—a random d-peptide array was probed with vWf and developed with […]. “Forward” D-amino acid peptides were tested, although L-amino acid versions of the peptides as well as the reverse (retro) of both L- and D-sequences will be also encompassed within the scope of these receptor molecules."}, "[5]": {"target": "purified GPIb (Homo sapiens, UniProt P07359)", "assay": "Overlapping vWf L-peptides on cellulose membrane probed by purified GPIb", "format": "binding", "settings": "detected by anti-GPIb coupled to HRP", "method": "The vWf amino acid sequence was used to generate 10-mer L-amino acid overlapping peptides, shifted by two (2), according to the following pattern:\nThese peptides were synthesized and remained attached on the cellulose membrane. The membranes were probed by purified GPIb which was detected by anti-GPIb coupled to horseradish peroxidase (HRP). A number of positive spots were found whose sequences were derived from their positions on the membrane.\nThe sequences were analyzed in silico by (a) finding their positions in a 3D model of the parent protein (see FIG. 17) and then (b) relating that position to the potential vWf-GPIb interactive site."}}, "note": "Where no end group is shown, it is not given here. [ ]: non-standard residue; d: D form.", "data": [{"substance": "D-Pep3-HL: D-Pep3 peptide covalently attached by Michael addition to hydrogel-liposomes ([dR][dS][dA][dR][dM][dQ][dV][dC][dW][dN][dA][dF][dK][dN][dR]; also: covalently attached to PEG hydrogel-coated liposome by Michael addition (Cys thiol or amines))", "values": [{"measurement": "stability of the peptide attachment", "setting": "[1]", "result": "> 1", "unit": "months"}, {"measurement": "binding (capture) of vWf", "setting": "[2]", "result": "able to bind their specific ligand"}, {"measurement": "aggregate formation with platelets", "setting": "[3]", "result": "form aggregates"}]}, {"substance": "DSCPRDWDNNFLFFE (not fully specified) [D-pep4]", "values": [{"measurement": "binding of vWf", "setting": "[4]", "result": "binding to vWf"}]}, {"substance": "EVLKYTLFQI [L-black]", "values": [{"measurement": "binding of GPIb (positive spots)", "setting": "[5]", "result": "+ve"}]}, {"substance": "RSARMQVCWNAFKNR (not fully specified) [D-pep3]", "values": [{"measurement": "binding of vWf", "setting": "[4]", "result": "binding to vWf"}]}, {"substance": "SHAYIGLKDR [L-brown]", "values": [{"measurement": "binding of GPIb (positive spots)", "setting": "[5]", "result": "+ve"}]}, {"substance": "VSRQNGKQYWAIKEG (not fully specified) [D-pep1]", "values": [{"measurement": "binding of vWf", "setting": "[4]", "result": "binding to vWf"}]}, {"substance": "WQNEGTHVLSRCYEC (not fully specified; cysteine pairing not given here) [D-pep2]", "values": [{"measurement": "binding of vWf", "setting": "[4]", "result": "binding to vWf"}]}]}
